Three molecules from PMC3103405 can be followed below.

For one data set, the target named is T1, AtfA::6His (Aspergillus fumigatus AkuB, UniProt Q4WY05 1-555).
T1 sequence: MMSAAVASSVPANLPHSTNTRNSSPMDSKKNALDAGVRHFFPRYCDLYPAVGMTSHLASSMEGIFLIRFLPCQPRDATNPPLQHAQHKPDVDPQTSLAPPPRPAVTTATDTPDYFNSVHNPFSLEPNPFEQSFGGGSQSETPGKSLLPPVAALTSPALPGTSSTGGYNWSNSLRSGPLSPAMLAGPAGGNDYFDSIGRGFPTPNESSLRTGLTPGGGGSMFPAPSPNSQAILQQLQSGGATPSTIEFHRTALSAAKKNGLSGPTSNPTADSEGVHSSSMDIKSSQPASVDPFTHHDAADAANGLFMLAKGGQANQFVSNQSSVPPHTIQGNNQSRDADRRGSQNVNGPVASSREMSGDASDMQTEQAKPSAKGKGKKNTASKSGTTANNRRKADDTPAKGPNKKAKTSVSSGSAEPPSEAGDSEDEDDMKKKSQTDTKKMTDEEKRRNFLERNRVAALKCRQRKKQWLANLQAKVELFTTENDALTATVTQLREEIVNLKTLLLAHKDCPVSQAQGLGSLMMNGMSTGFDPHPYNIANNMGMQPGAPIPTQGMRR
Briefly: EMSA.

The next data set concerns the target GST::PacC (30-195*) (Aspergillus nidulans? (plasmid …, UniProt Q00202 30-195)). The data set is described as follows: EMSA.

GST::PacC (30-195*) (Aspergillus nidulans?, sequence (Q00202 30-195): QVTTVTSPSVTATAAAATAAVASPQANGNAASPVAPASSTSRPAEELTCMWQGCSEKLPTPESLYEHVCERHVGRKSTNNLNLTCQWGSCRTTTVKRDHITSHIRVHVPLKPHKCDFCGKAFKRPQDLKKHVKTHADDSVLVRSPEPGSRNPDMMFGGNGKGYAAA

B1: A-23 probe (DprA promoter) (dsDNA)
DNA 1: GGGCAGTTCAAATACAGAACGTCACAAATCTTACACA
DNA 2: GGGTGTGTAAGATTTGTGACGTTCTGTATTTGAACTG
Take B1: in the data set with AtfA::6His, the binding result is recorded as “binds”.

B2: PacC probe (DprB promoter, -264) (dsDNA)
DNA 1: GGGTCGATCCAGGTACCGCCAGGGGTTGATATGACAG
DNA 2: GGGCTGTCATATCAACCCCTGGCGGTACCTGGATCGA
Consider B2, for which, in the data set with GST::PacC (30-195*), the binding result is reported as “binds”.

B3: A-142 probe (DprA promoter) (dsDNA)
DNA 1: GGGCTCCCCGGCTTCTTGACGTAACCCCCAGACATGA
DNA 2: GGGTCATGTCTGGGGGTTACGTCAAGAAGCCGGGGAG
Turning to B3, the binding result with AtfA::6His is “binds”.
